# Measured values published in IntAct's records for PubMed 29039417.
# B1: Isoform 2 of Bardet-Biedl syndrome 7 protein (Homo sapiens), Q8IWZ6-2 (parent)
# chain: MDLILNRMDYLQVGVTSQKTMKLIPASRHRATQKVVIGDHDGVVMCFGMKKGEAAAVFKTLPGPKIARLELGGVINTPQEKIFIAAASEIRGFTKRGKQFLSFETNLTESIKAMHISGSDLFLSASYIYNHYCDCKDQHYYLSGDKINDVICLPVERLSRITPVLACQDRVLRVLQGSDVMYAVEVPGPPTVLALHNGNGGDSGEDLLFGTSDGKLALIQITTSKPVRKWEIQNEKKRGGILCIDSFDIVGDGVKDLLVGRDDGMVEVYSFDNANEPVLRFDQMLSESVTSIQGGCVGKDSYDEIVVSTYSGWVTGLTTEPIHKESGPGEELKINQEMQNKISSLRNELEHLQYKVLQERENYQQSSQSSKAKSAVPSFGINDKFTLNKDDASYSLILEVQTAIDNVLIQSDVPIDLLDVDKNSAVVSFSSCDSESNDNFLLATYRCQADTTRLELKIRSIEGQYGTLQAYVTPRIQPKTCQVRQYHIKPLSLHQRTHFIDHDRPMNTLTLTGQFSFAEVHSWVVFCLPEVPEKPPAGECVTFYFQNTFLDTQLESTYRKGEGVFKSDNISTISILKDVLSKEATKRKINLNISYEINEVSVKHTLKLIHPKLEYQLLLAKKVQLIDALKELQIHEGNTNFLIPEYHCILEEADHLQEEYKKQPAHLERLYG
# partner: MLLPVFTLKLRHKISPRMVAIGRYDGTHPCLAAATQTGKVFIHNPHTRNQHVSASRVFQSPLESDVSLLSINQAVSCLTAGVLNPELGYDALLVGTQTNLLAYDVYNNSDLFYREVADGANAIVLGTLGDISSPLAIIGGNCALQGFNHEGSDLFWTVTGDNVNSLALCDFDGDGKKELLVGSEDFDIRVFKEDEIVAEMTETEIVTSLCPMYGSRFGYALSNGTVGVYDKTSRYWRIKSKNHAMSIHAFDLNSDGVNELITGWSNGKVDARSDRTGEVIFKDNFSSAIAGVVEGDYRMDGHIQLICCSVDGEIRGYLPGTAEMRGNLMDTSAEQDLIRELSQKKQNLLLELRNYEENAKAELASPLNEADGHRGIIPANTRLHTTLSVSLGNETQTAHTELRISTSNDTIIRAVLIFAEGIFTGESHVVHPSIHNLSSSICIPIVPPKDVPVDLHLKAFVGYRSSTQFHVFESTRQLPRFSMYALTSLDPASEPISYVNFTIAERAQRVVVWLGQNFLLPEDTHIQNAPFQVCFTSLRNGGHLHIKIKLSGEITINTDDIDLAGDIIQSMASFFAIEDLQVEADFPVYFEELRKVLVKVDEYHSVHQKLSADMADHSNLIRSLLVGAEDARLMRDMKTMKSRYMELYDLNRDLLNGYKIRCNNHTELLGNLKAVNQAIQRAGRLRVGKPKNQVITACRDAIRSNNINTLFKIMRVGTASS
# Variants of: B1
# Conditions: with bbs2_human BBS2, Q9BXC9
row,Variant,effect of a mutation on the interaction
1,I589K,with no effect
2,I589A,with no effect
3,I589E,with no effect
4,G563R,disrupting interaction strength
5,G563E,with no effect
6,G563K,with no effect
7,G563A,with no effect
8,I570E,with no effect
9,I570L,disrupting interaction strength
10,I570K,with no effect
11,I570A,with no effect
12,R587A,with no effect
13,R587K,with no effect
14,R587E,with no effect
15,L580K,with no effect
16,L580E,with no effect
17,L580A,with no effect
18,K534E,with no effect
19,K534A,with no effect
20,N590E,with no effect
21,N590A,with no effect
22,N590K,with no effect
23,E530K,with no effect
24,P532A,with no effect

row,Variant,effect of a mutation on the interaction
1,P532K,with no effect
2,P532E,with no effect
3,D578K,with no effect
4,D578E,with no effect
5,D578A,with no effect
6,F545E,with no effect
7,F545K,with no effect
8,F545A,with no effect
9,F549E,with no effect
10,F549A,with no effect
11,F549K,with no effect
12,T548A,with no effect
13,T548K,with no effect
14,T548E,with no effect
15,T548S,disrupting interaction strength
16,A584K,with no effect
17,A584E,with no effect
18,Y558A,with no effect
19,Y558K,with no effect
20,Y558E,with no effect
21,K586E,with no effect
22,K586A,with no effect
23,S594A,with no effect
24,S594K,with no effect

row,Variant,effect of a mutation on the interaction
1,S594E,with no effect
2,E539A,with no effect
3,E539K,with no effect
4,V564A,with no effect
5,V564K,with no effect
6,V564E,with no effect
7,C540K,with no effect
8,C540A,with no effect
9,C540E,with no effect
10,E533A,with no effect
11,E533K,with no effect
12,K577E,with no effect
13,K577A,with no effect
14,K560A,with no effect
15,K560E,with no effect
16,N592E,with no effect
17,N592A,with no effect
18,N592K,with no effect
19,V579E,with no effect
20,V579A,with no effect
21,V579K,with no effect
22,D551A,with no effect
23,D551E,with no effect
24,D551K,with no effect

row,Variant,effect of a mutation on the interaction
1,S567E,with no effect
2,S567K,with no effect
3,S567A,with no effect
4,T572A,with no effect
5,T572K,with no effect
6,T572E,with no effect
7,L591E,with no effect
8,L591A,with no effect
9,L591K,with no effect
10,Q553A,with no effect
11,Q553K,with no effect
12,Q553E,with no effect
13,G561A,with no effect
14,G561K,with no effect
15,G561S,disrupting interaction strength
16,G561E,with no effect
17,G561R,disrupting interaction strength
18,L576E,with no effect
19,L576K,with no effect
20,L576A,with no effect
21,K588E,with no effect
22,K588A,with no effect
23,V541A,with no effect
24,V541K,with no effect

row,Variant,effect of a mutation on the interaction
1,V541E,with no effect
2,L554A,with no effect
3,L554K,with no effect
4,L554E,with no effect
5,P535A,with no effect
6,P535E,with no effect
7,P535K,with no effect
8,Y544A,with no effect
9,Y544K,with no effect
10,Y544E,with no effect
11,L550E,with no effect
12,L550K,with no effect
13,L550A,with no effect
14,T552K,with no effect
15,T552A,with no effect
16,T552E,with no effect
17,P536E,with no effect
18,P536A,with no effect
19,P536K,with no effect
20,E583A,with no effect
21,E583K,with no effect
22,K582E,with no effect
23,K582A,with no effect
24,D568A,with no effect

row,Variant,effect of a mutation on the interaction
1,D568K,with no effect
2,D568E,with no effect
3,S574A,with no effect
4,S574K,with no effect
5,S574E,with no effect
6,E562A,with no effect
7,E562K,with no effect
8,S581K,with no effect
9,S581E,with no effect
10,S581A,with no effect
11,S571E,with no effect
12,S571K,with no effect
13,S571A,with no effect
14,K566E,with no effect
15,K566A,with no effect
16,I573A,with no effect
17,I573E,with no effect
18,I573K,with no effect
19,Q546K,with no effect
20,Q546E,with no effect
21,Q546A,with no effect
22,T542E,with no effect
23,T542A,with no effect
24,T542K,with no effect

row,Variant,effect of a mutation on the interaction
1,T557K,with no effect
2,T557E,with no effect
3,T557A,with no effect
4,A537K,with no effect
5,A537E,with no effect
6,F543K,with no effect
7,F543E,with no effect
8,F543A,with no effect
9,S556E,with no effect
10,S556A,with no effect
11,S556K,with no effect
12,N547A,with no effect
13,N547E,with no effect
14,N547K,with no effect
15,E555K,with no effect
16,E555A,with no effect
17,G538E,with no effect
18,G538A,with no effect
19,G538K,with no effect
20,V531K,with no effect
21,V531E,with no effect
22,V531A,with no effect
23,T585E,with no effect
24,T585K,with no effect

row,Variant,effect of a mutation on the interaction
1,T585A,with no effect
2,F565A,with no effect
3,F565K,with no effect
4,F565E,with no effect
5,N569E,with no effect
6,N569A,with no effect
7,N569K,with no effect
8,Y595A,with no effect
9,I575A,with no effect
10,I575E,with no effect
11,I575K,with no effect
12,I593K,with no effect
13,I593A,with no effect
14,I593E,with no effect
15,R559A,with no effect
16,R559K,with no effect
17,R559E,with no effect
